How the values were obtained:
[1] = target: T1, full length rat GHR (L43R) on BAF3 cells (rat) (UniProt P16310); test: cell-based or functional assay
T1 sequence (looked up): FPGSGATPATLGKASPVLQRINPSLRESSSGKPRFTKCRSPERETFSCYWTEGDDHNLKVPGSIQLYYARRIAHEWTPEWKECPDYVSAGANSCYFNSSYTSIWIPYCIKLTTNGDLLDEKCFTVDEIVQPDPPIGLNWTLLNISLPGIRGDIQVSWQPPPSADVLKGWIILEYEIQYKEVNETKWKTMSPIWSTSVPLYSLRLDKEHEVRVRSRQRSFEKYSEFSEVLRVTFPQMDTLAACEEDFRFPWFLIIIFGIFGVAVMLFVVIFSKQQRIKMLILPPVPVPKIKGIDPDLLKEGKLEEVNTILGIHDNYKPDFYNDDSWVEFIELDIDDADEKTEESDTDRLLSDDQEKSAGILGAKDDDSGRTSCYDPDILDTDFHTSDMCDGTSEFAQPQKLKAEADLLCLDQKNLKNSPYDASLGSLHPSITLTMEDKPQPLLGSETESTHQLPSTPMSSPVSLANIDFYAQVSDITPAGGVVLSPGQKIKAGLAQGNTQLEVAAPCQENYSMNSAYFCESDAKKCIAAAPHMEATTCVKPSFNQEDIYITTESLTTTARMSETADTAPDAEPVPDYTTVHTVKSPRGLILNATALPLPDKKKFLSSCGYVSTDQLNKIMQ

[2] = target: human growth hormone receptor on IM-9 cells (human) (UniProt P10912); test: cell-based or functional assay
UniProt P10912, sequence (P10912 19-638): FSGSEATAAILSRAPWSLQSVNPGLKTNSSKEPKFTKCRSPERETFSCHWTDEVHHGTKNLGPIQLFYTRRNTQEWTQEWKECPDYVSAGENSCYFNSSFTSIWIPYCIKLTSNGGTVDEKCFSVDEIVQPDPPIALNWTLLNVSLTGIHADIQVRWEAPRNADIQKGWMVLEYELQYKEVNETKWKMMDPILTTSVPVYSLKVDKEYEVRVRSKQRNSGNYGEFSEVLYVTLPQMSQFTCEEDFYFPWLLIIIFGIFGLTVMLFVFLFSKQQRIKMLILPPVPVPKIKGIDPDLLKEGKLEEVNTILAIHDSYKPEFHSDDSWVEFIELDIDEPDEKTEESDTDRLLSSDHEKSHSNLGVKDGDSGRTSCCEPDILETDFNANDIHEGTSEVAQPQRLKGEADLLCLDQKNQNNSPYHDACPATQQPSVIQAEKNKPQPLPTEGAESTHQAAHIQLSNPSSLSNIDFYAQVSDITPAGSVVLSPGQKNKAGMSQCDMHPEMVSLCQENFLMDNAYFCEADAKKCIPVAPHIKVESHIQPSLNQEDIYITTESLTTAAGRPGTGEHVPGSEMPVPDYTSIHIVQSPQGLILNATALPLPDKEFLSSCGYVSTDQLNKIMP

Substance	Proliferation EC50 (BrdU), WHO hGH expressed as unity (relative, WHO hGH = 1 (head prints nM)) [1]	pSTAT5 EC50 (IM-9), WHO hGH expressed as unity (relative, WHO hGH = 1 (head prints nM)) [2]
K145pAF-30KPEG (from UniProt P01241 27-217) (ligand)	5.3	20.6
Y35pAF-40KPEG (from UniProt P01241 27-217) (ligand)	24	53.3
Y143pAF-30KPEG (from UniProt P01241 27-217) (ligand)	6.6	12.3

The remaining lines, values ahead:

Proliferation EC50 (BrdU), WHO hGH expressed as unity (relative, WHO hGH = 1 (head prints nM)) [1]	pSTAT5 EC50 (IM-9), WHO hGH expressed as unity (relative, WHO hGH = 1 (head prints nM)) [2]	Substance
4.6	23.8	G131pAF-30KPEG (from UniProt P01241 27-217) (ligand)
–	5.3	R134pAF-20KPEG (from UniProt P01241 27-217) (ligand)
